{"source": "paper PMC4941208", "about": "(Journal of the American Chemical Society, 2015)", "molecules": {"B1": {"name": "P-3 (thymine-TTPV, non-glycosylated control of GP-2) (peptide)", "peptide": "thymine-TTPV"}, "B2": {"name": "GP-2 (thymine-TTPV-glucosamine, conjugate of nucleobase, peptide and saccharide) (peptide)", "peptide": "thymine-TTPV-GlcN"}, "B3": {"name": "P-1 (Nap-FF-LGFNI, heptapeptide derivative) (peptide)", "peptide": "{Acetyl(2-naphthyl)}-FFLGFNI"}}, "key": {"[1]": {"assay": "TEM of hydrogel and solutions", "assay_type": "physicochemical", "conditions": "solution at 16.6 mM"}, "hydrogel of P-1": {"tested_on": "hydrogel of P-1", "assay": "Gel-sol transition and rheology", "assay_type": "physicochemical", "conditions": "7 days"}, "proteinase K": {"biological_target": "proteinase K (Parengyodontium album, UniProt P06873)", "sequence (P06873 106-384)": "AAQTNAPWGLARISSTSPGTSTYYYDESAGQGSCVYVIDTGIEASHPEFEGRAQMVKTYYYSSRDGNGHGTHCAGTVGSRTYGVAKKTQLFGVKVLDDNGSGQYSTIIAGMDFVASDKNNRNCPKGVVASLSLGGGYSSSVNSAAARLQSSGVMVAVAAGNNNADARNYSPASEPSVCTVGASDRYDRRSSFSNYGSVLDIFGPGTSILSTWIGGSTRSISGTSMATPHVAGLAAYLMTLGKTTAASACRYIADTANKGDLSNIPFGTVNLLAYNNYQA", "assay_type": "in vitro ADME", "conditions": "37 °C, 24 h"}, "[2]": {"biological_target": "T1, P-1 (Nap-FF-LGFNI, heptapeptide derivative)", "T1 sequence (peptide, 2-(naphthalen-2-yl)acetic group (Nap) on the N-terminus)": "FFLGFNI", "assay": "ITC"}, "hydrogelation + TEM": {"biological_target": "the molecule itself", "assay": "hydrogelation + TEM"}}, "note": "No end group written: not given here. *: point of attachment. GlcN = OC[C@H]1OC(O)[C@H](N*)[C@@H](O)[C@@H]1O; Acetyl(2-naphthyl) = O=C(Cc1ccc2ccccc2c1)*"}
{"molecule": "GP-2: Glycoconjugate of nucleobase, peptide, saccharide: thymine at N-terminal and glucosamine at C-terminal of TTPV (thymine-TTPV-GlcN)", "values": [{"measurement": "nanostructures in TEM images of the solution", "setting": "[1]", "result": "hardly any ordered nanostructures"}, {"measurement": "G' times smaller than that of hydrogel of P-1", "setting": "hydrogel of P-1; 4 equiv of compound", "result": "about 300 times"}, {"measurement": "Max G' of P-1 after addition of 4 equiv of compound", "setting": "hydrogel of P-1; hydrogel of P-1 622 μM, pH 6.4, 300 μL + 50 μL 15 mM compound (4:1)", "result": 0.06, "unit": "Pa"}, {"measurement": "Hydrogelator P-1 remaining in mixture with 1 equiv of compound", "setting": "proteinase K; hydrogel of P-1 + compound 1:1, proteinase K 3.2 U/mL", "result": "45.0 ± 0.4", "unit": "%"}, {"measurement": "Hydrogelator P-1 remaining in mixture with 4 equiv of compound", "setting": "proteinase K; hydrogel of P-1 + compound 4:1, proteinase K 3.2 U/mL", "result": "24.2 ± 2.0", "unit": "%"}]}
{"molecule": "B1", "values": [{"measurement": "Kd", "setting": "[2]", "result": 235, "unit": "µM"}, {"measurement": "dH", "setting": "[2]", "result": -3.13, "unit": "kcal/mol"}, {"measurement": "stoichiometry N", "setting": "[2]", "result": 1.38}]}
{"molecule": "B2", "values": [{"measurement": "Kd", "setting": "[2]", "result": 262, "unit": "µM"}, {"measurement": "dH", "setting": "[2]", "result": -4.11, "unit": "kcal/mol"}, {"measurement": "stoichiometry N", "setting": "[2]", "result": 1.04}]}
{"molecule": "B3", "values": [{"measurement": "binding result", "setting": "hydrogelation + TEM", "result": "binds"}]}
